Experimental data: patent publication US20250042944A1 (NATIONAL MARINE BIODIVERSITY INSTITUTE OF KOREA, published 2025)
Bridges are numbered along the chain shown (N, C = ends). Where no end group is shown, it is not given here.

What was measured:
Assay in all cases: cell-based or functional assay
[1] = biological target: T1, recombinant human oxytocin receptor (human, UniProt P30559 1-389)
T1 sequence (looked up): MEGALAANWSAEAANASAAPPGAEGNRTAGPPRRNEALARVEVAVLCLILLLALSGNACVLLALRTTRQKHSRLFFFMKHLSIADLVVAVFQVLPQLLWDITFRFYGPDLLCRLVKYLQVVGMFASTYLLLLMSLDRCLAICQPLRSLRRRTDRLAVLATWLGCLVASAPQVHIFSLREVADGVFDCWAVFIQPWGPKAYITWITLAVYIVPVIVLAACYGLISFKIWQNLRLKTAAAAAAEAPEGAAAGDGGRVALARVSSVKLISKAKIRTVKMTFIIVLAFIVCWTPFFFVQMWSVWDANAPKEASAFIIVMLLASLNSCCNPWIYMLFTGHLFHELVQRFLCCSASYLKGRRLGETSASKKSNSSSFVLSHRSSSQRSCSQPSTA

[2] = biological target: T2, recombinant human vasopressin V1B receptor (human, UniProt P47901 1-424)
T2 sequence (looked up): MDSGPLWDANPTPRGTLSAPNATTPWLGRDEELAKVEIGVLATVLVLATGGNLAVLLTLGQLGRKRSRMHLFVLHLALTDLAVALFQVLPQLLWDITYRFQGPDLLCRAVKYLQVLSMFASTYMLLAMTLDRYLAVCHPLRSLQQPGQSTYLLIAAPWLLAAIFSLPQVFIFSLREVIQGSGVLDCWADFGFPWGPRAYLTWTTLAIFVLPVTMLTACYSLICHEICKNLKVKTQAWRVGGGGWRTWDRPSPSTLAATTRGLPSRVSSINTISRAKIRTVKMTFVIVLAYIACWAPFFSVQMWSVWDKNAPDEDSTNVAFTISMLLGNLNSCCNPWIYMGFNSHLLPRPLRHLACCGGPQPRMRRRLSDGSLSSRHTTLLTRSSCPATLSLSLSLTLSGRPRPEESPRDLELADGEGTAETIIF

[3] = biological target: recombinant human vasopressin V2 receptor (human, UniProt P30518 1-371)

B1: Pro-sepiatocin (peptide)
peptide: CFFRNCPPG-NH2
modifications: disulfide 1-6; N-terminus assumed
SMILES: N=C(N)NCCC[C@@H]1NC(=O)[C@H](Cc2ccccc2)NC(=O)[C@H](Cc2ccccc2)NC(=O)[C@@H](N)CSSC[C@@H](C(=O)N2CCC[C@H]2C(=O)N2CCC[C@H]2C(=O)NCC(N)=O)NC(=O)[C@H](CC(N)=O)NC1=O
[1]
  IC50 of receptor inhibition (calcium response to 30 nM oxytocin, calcium dye fluorescence imaging, ECV304 cells): 16000 nM
[2]
  EC50 of receptor activation (intracellular calcium increase, calcium dye fluorescence imaging, RBL cells): 214 nM

B2: Squidtocin (peptide)
peptide: CYFRNCPAG-NH2
modifications: disulfide 1-6; N-terminus assumed
SMILES: C[C@H](NC(=O)[C@@H]1CCCN1C(=O)[C@@H]1CSSC[C@H](N)C(=O)N[C@@H](Cc2ccc(O)cc2)C(=O)N[C@@H](Cc2ccccc2)C(=O)N[C@@H](CCCNC(=N)N)C(=O)N[C@@H](CC(N)=O)C(=O)N1)C(=O)NCC(N)=O
[3]
  EC50 of receptor activation (intracellular cAMP accumulation, HTRF, CHO cells): 42 nM
[2]
  EC50 of receptor activation (intracellular calcium increase, calcium dye fluorescence imaging, RBL cells): 0.94 nM
